Measurements taken from the supplement of paper PMC12764529.
± gives the half width of the 95% confidence interval.

Columns and labels:
[1] = folding stability dG unfold (combined trypsin and chymotrypsin); higher = more stable
In short: (§1)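 Designed mini-proteins (under 80 residues, no cysteine) in a PA-tagged cDNA display construct were digested with trypsin and chymotrypsin. Each protease was used at 11 concentrations (threefold dilutions) plus a no-protease condition, followed by sequencing. K50 was inferred by Bayesian fitting of sequencing counts, and unfolding free energy was derived against a sequence-predicted unfolded-state K50 and a shared folded-state K50, per protease or combined. Only designs with AlphaFold2 dimer inter-PAE above 15 were kept.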

[2] = folding stability dG unfold from trypsin proteolysis; higher = more stable
In short: as §1

[3] = folding stability dG unfold from chymotrypsin proteolysis; higher = more stable
In short: as §1

SAMMTPEERAFVERLRALFAERGGRIEIRFFEEPDRIEILVEEDDPELIREIREELARIPFPISRIVEESAG [r14_284_TrMRF]
folding stability dG unfold [1]: 3.33 ± 0.04 kcal/mol | folding stability dG unfold [2]: 2.434 ± 0.016 kcal/mol | folding stability dG unfold [3]: 3.695 ± 0.012 kcal/mol

SAMMVVYYDPETGELVLVDPSEIPPELVEKGIEPVRLVPLRILVEVESEEEAEELARLFPDLVEVSLNPSAG [r14_638_TrMRF]
folding stability dG unfold [1]: 1.88 ± 0.098 kcal/mol | folding stability dG unfold [2]: 1.97 ± 0.045 kcal/mol | folding stability dG unfold [3]: 1.83 ± 0.032 kcal/mol

SAMPAENMTPEEAAELALAYVERFRAEVEALGGPIPADTEIVVPVTLEGPPVEIKITFINPDEVEVEVASAG [r14_501_TrMRF]
folding stability dG unfold [1]: 1.34 ± 0.17 kcal/mol | folding stability dG unfold [2]: 1.46 ± 0.15 kcal/mol | folding stability dG unfold [3]: 1.17 ± 0.09 kcal/mol

SAMPIESVEFHPEEGVITLRFRAPAHPDAEKFEIEVVVDGAEAGEIEVEVDPETNEVRALVRVKIPKGASAG [r14_244_TrMRF]
folding stability dG unfold [1]: 3.7 ± 0.25 kcal/mol | folding stability dG unfold [2]: 2.71 ± 0.1 kcal/mol | folding stability dG unfold [3]: 4.23 ± 0.059 kcal/mol

SAMPIPNKNVVIRAKRSPDGTWDLTITVDNEKLGSKKAKTEEELKALVEEIAKEIAEKLGPGNVTVVEESAG [r14_791_JUSTAS]
folding stability dG unfold [1]: 2.69 ± 0.22 kcal/mol | folding stability dG unfold [2]: 2.74 ± 0.28 kcal/mol | folding stability dG unfold [3]: 2.54 ± 0.15 kcal/mol

SAMPIQIMVERDPDDGYIKVTIMFRSDSPEEAYELIETLFENLGVEVNIERYPEEGYFMIEVEIRLPPGSAG [r14_424_TrROS]
folding stability dG unfold [1]: 3.89 ± 0.21 kcal/mol | folding stability dG unfold [2]: 3.45 ± 0.23 kcal/mol | folding stability dG unfold [3]: 4.13 ± 0.33 kcal/mol

SAMPLEDMTPEQAEEFAKEFINRFQQENQKKGGPIPPGQEIEIPVRYKGGPVYIKITVTNPGNINIEVESAG [r14_501_TrROS]
folding stability dG unfold [1]: 0.663 ± 0.13 kcal/mol | folding stability dG unfold [2]: 0.448 ± 0.048 kcal/mol | folding stability dG unfold [3]: 0.708 ± 0.095 kcal/mol

SAMRMISFPIESPEELEDELEEKFGVEVETFPDGMRMIKFRRNNEPVIIMIPPNNGHITIIPPEDMDKMSAG [r14_402_TrROS]
folding stability dG unfold [1]: 1.01 ± 0.15 kcal/mol | folding stability dG unfold [2]: 0.685 ± 0.19 kcal/mol | folding stability dG unfold [3]: 1.28 ± 0.21 kcal/mol

SAMSPEEIRARARALLEEKYPDKPYTLLSVEVDPSTGRVTVTWESPTPEKTTVTTPLTVTFGADGSLRESAG [r14_183_JUSTAS]
folding stability dG unfold [1]: 2.02 ± 0.029 kcal/mol | folding stability dG unfold [2]: 2.028 ± 0.012 kcal/mol | folding stability dG unfold [3]: 1.973 ± 0.017 kcal/mol

SAMTITVTAPPGYTLNVTVTLAGGVPLTRTFSPSQSIDITIPEGTPFSLTVTTTAPGGEVATSTLTVPLSAG [r14_568_JUSTAS]
folding stability dG unfold [1]: 3.19 ± 0.094 kcal/mol | folding stability dG unfold [2]: 3.19 ± 0.12 kcal/mol | folding stability dG unfold [3]: 3.171 ± 0.018 kcal/mol

SAMTIVLTLDEIAELLGLEKGESVEELRERIRELIRRLEEEGYRVTSITIEEVDGELVITVEIEPPPPESAG [r14_158_TrROS_Hall]
folding stability dG unfold [1]: 4.89 ± 0.21 kcal/mol | folding stability dG unfold [2]: 3.38 ± 0.2 kcal/mol | folding stability dG unfold [3]: 5.23 ± 0.21 kcal/mol

SAMTKEEAKENGHIYIMVKIEVTWPNGGKREFPIFFPFPSLDEAKEQIRSFFRRMNFKVKIDDISIFPVSAG [r14_854_TrROS]
folding stability dG unfold [1]: 3.53 ± 0.049 kcal/mol | folding stability dG unfold [2]: 2.98 ± 0.048 kcal/mol | folding stability dG unfold [3]: 3.745 ± 0.027 kcal/mol

SAMTLRIELTKEELEKLIKELKPGDEVELEIEVNGRTYRIRAKITRIERVDDKVYIEVELEIEELPEEESAG [r14_335_TrROS_Hall]
folding stability dG unfold [1]: 4.63 ± 0.13 kcal/mol | folding stability dG unfold [2]: 4.46 ± 0.11 kcal/mol | folding stability dG unfold [3]: 4.75 ± 0.064 kcal/mol

SAMTLTLTVPPGAKVRVRITNENGETTEIEVEPGETVTITLPAGSTVRVEVEVVDPDGRKRTETFTLKPSAG [r14_568_TrROS_Hall]
folding stability dG unfold [1]: 3.27 ± 0.15 kcal/mol | folding stability dG unfold [2]: 3.46 ± 0.11 kcal/mol | folding stability dG unfold [3]: 3.22 ± 0.07 kcal/mol

SAMTPEFFETIKEASREGDIAAVLEAAEAIKTEFPDTGLTVDVVIEPREDDRFVIEVRVDYPPNLEGLASAG [r14_690_TrMRF]
folding stability dG unfold [1]: -0.0704 ± 0.18 kcal/mol | folding stability dG unfold [2]: -0.142 ± 0.039 kcal/mol | folding stability dG unfold [3]: -0.212 ± 0.11 kcal/mol

SAMTPETERKLLEAPKTGDVEAVREAAEEIEKEYPGKGLVVTVTVSPLSDGTWEVEVTVELPPNLPELASAG [r14_690_JUSTAS]
folding stability dG unfold [1]: 0.437 ± 0.38 kcal/mol | folding stability dG unfold [2]: 0.702 ± 0.12 kcal/mol | folding stability dG unfold [3]: 0.27 ± 0.097 kcal/mol

SAMTVEIEFPPELEVEELVEKLKEAFPGEEIEVEAERDPVEPRLRIRVTVDDPELAEEVEKKLRELVEESAG [r14_443_TrMRF]
folding stability dG unfold [1]: 3 ± 0.12 kcal/mol | folding stability dG unfold [2]: 3.34 ± 0.15 kcal/mol | folding stability dG unfold [3]: 2.21 ± 0.1 kcal/mol

SAMTVERLPDGSLRITIPDPNSDTTYTIEIRRLPDGSYEVTITTTKPDGSTTTTTRPMSEEEAIAEVLASAG [r14_179_JUSTAS]
folding stability dG unfold [1]: 3.6 ± 0.055 kcal/mol | folding stability dG unfold [2]: 3.75 ± 0.061 kcal/mol | folding stability dG unfold [3]: 3.54 ± 0.068 kcal/mol

SAMTVVIPPNLTALTEDGRPIHPDQVVEVYEAEAFPELGRVVARVKVFDPVSGEETEERLVLFFPDGAESAG [r14_258_TrMRF]
folding stability dG unfold [1]: 1.53 ± 0.036 kcal/mol | folding stability dG unfold [2]: 1.26 ± 0.033 kcal/mol | folding stability dG unfold [3]: 1.66 ± 0.021 kcal/mol

SAMTVYYKITAEVEKTIGDTPETLTVPLTLTVPPDKLNEEEIKKIAEEKAKELGYTLKKIEISKTPSLPSAG [r14_278_JUSTAS]
folding stability dG unfold [1]: 2.11 ± 0.21 kcal/mol | folding stability dG unfold [2]: 2.22 ± 0.084 kcal/mol | folding stability dG unfold [3]: 2.06 ± 0.17 kcal/mol

SAMTYTLTPAGGKTITVTLNPDGSITITSTSTSSSLPLSPDAKITSVTFDAATGTITITLNSKPITIPASAG [r14_276_JUSTAS]
folding stability dG unfold [1]: 1.92 ± 0.15 kcal/mol | folding stability dG unfold [2]: 1.9 ± 0.057 kcal/mol | folding stability dG unfold [3]: 1.74 ± 0.17 kcal/mol

SAMVIPAEVRLPGTPEEVLEKAREFADTLAARFRELGFEVVAVELEEIEPGEAVVRLRIVVARPDEEFPSAG [r14_973_TrMRF]
folding stability dG unfold [1]: 2.85 ± 0.069 kcal/mol | folding stability dG unfold [2]: 2.75 ± 0.086 kcal/mol | folding stability dG unfold [3]: 2.79 ± 0.03 kcal/mol

SAMVITTSLEEARKRTGLSESASPEEVRAAVEALIAAETAAGVTLLAIELLEVGDTWTLRVEIERAGGVSAG [r14_158_JUSTAS]
folding stability dG unfold [1]: 2.07 ± 0.077 kcal/mol | folding stability dG unfold [2]: 2.36 ± 0.057 kcal/mol | folding stability dG unfold [3]: 1.72 ± 0.068 kcal/mol

SAMVLDLTELLREKAAEIRKADPRPLTPEELRELAREAAEELAKETGKPITEIRVEETDEWPRITAVVLSAG [r14_147_JUSTAS]
folding stability dG unfold [1]: 0.461 ± 0.24 kcal/mol | folding stability dG unfold [2]: 1.04 ± 0.044 kcal/mol | folding stability dG unfold [3]: -0.358 ± 0.3 kcal/mol

SAMVLRIKVEVNGETKEIEIELPPNAKIEKKDGELTIYVKNPETGKIFKFKFKKNAKIVEVEEVDPEDLSAG [r14_313_TrROS_Hall]
folding stability dG unfold [1]: 3.83 ± 0.1 kcal/mol | folding stability dG unfold [2]: 2.6 ± 0.046 kcal/mol | folding stability dG unfold [3]: 4.22 ± 0.052 kcal/mol

SAMVTYDPEKGVFEAEIEVGGETLRVTVVRDPETGEVVAVVERPGSGEPVVLPLPFKSLSDVIRYAEEHSAG [r14_803_TrMRF]
folding stability dG unfold [1]: 2.36 ± 0.11 kcal/mol | folding stability dG unfold [2]: 2.3 ± 0.07 kcal/mol | folding stability dG unfold [3]: 2.49 ± 0.044 kcal/mol

SAMVVIKPEGDKIVVEITLPDGSTKVIELPEVEKIEIKGDTLIITDPKTGKKIIPENTTVSNPKIEPAKSAG [r14_83_JUSTAS]
folding stability dG unfold [1]: 0.0698 ± 0.14 kcal/mol | folding stability dG unfold [2]: -0.167 ± 0.065 kcal/mol | folding stability dG unfold [3]: -0.0623 ± 0.064 kcal/mol

SAMVVIPFPKDTPPEVALEAVRKAVREAAENGIVPEKIVVVAHPDLVFLVDSLVEAGIPLENVEFVPSESAG [r14_589_TrMRF]
folding stability dG unfold [1]: 2.88 ± 0.052 kcal/mol | folding stability dG unfold [2]: 2.87 ± 0.069 kcal/mol | folding stability dG unfold [3]: 2.86 ± 0.057 kcal/mol

SAMVVPVKVELEIRVPGTPEEALEIAEELAKAFESLGNVEVDLELIEKSEDGSYIIKLTVTNYLPPELFSAG [r14_413_TrMRF]
folding stability dG unfold [1]: 1.53 ± 0.21 kcal/mol | folding stability dG unfold [2]: 0.905 ± 0.1 kcal/mol | folding stability dG unfold [3]: 1.99 ± 0.11 kcal/mol

SAMYEPAEFSFTLPNGEKIHITAPKNPNTDEPIVSITIYRKLPDGNTVSFTITVKSSDIDEIIEKLGIKSAG [r14_416_TrMRF]
folding stability dG unfold [1]: 3.67 ± 0.32 kcal/mol | folding stability dG unfold [2]: 3.39 ± 0.095 kcal/mol | folding stability dG unfold [3]: 3.74 ± 0.11 kcal/mol

SANDDDWVTVIFEIPIVRKDPDGKPEKHPFRLMVQVHPDGRVEINIMYPNGRPIASQTVPPGQTLEDFISAG [r14_559_TrROS]
folding stability dG unfold [1]: 3.38 ± 0.23 kcal/mol | folding stability dG unfold [2]: 2.63 ± 0.13 kcal/mol | folding stability dG unfold [3]: 3.84 ± 0.077 kcal/mol

SANGEMTMMFEFEIFFPGLGYRGKIYVMMRIEPTPNQIRIDLMIMIEIEPIPPPPPKVPPEQNPEDADDSAG [r14_435_TrROS]
folding stability dG unfold [1]: 5.23 ± 0.48 kcal/mol | folding stability dG unfold [2]: 3.82 ± 0.21 kcal/mol | folding stability dG unfold [3]: 5.18 ± 0.2 kcal/mol

SANGKEYTFTIEIRVRDPENGQPWTIRITVPIWYDPDDGKLDIDIDVTPTPGMPKEWAERIAKEIIEAISAG [r14_152_TrROS]
folding stability dG unfold [1]: 3.6 ± 0.076 kcal/mol | folding stability dG unfold [2]: 3.04 ± 0.11 kcal/mol | folding stability dG unfold [3]: 3.95 ± 0.048 kcal/mol

SAPAVLLEEPDTLVEVEKLPDGSLLIRRVTKFPDGSVTVEISVIYPGGSLSVLESVTLNVPPEEPLPLLSAG [r14_42_JUSTAS]
folding stability dG unfold [1]: 1.91 ± 0.073 kcal/mol | folding stability dG unfold [2]: 2.42 ± 0.054 kcal/mol | folding stability dG unfold [3]: 1.46 ± 0.051 kcal/mol

SAPDPEQRKKNREQQEKNERMIPIQIHVYDKDGKWKPIGPVWFKDPDVPIDDLVPTFHDEGFDYVSISISAG [r14_318_TrROS]
folding stability dG unfold [1]: 0.299 ± 0.21 kcal/mol | folding stability dG unfold [2]: 0.153 ± 0.15 kcal/mol | folding stability dG unfold [3]: 0.209 ± 0.23 kcal/mol

SAPDWVKIKFPFRFYNPDPDGKPMAKMKLEIEVYPSPGAYMAKIEDPNFGMKITFPFDSPEEVKDFLQNSAG [r14_508_TrROS]
folding stability dG unfold [1]: 1.23 ± 0.32 kcal/mol | folding stability dG unfold [2]: 1.25 ± 0.083 kcal/mol | folding stability dG unfold [3]: 1.14 ± 0.25 kcal/mol
